Results published in FireProtDB (doi:10.1021/bi952198j).
Where “and” joins values, the source holds several entries; their conditions need not be identical. Identical values can stand only once.

Conditions: Aspergillus oryzae (strain ATCC 42149 / RIB 40), Thermal, DSC, reversible: yes, whole UniProt chain shown

B1: Guanyl-specific ribonuclease T1 wild type, P00651 (protein)
chain: MMYSKLLTLTTLLLPTALALPSLVERACDYTCGSNCYSSSDVSTAQAAGYQLHEDGETVGSNSYPHKYNNYEGFDFSVSSPYYEWPILSSGDVYSGGSPGADRVVFNENNQLAGVITHTGASGNNFVECT
Tm (pH 2, glycine 50 mM): 34.9 °C | heat capacity change of unfolding (pH 2, glycine 50 mM): 1.33 kcal/mol/K | unfolding enthalpy (calorimetric) (pH 2, glycine 50 mM): 62.1 kcal/mol | unfolding enthalpy (van 't Hoff) (pH 2, glycine 50 mM): 78.9 kcal/mol | Tm (pH 2.4, glycine 50 mM): 41.4 °C | heat capacity change of unfolding (pH 2.4, glycine 50 mM): 0.53 kcal/mol/K | unfolding enthalpy (calorimetric) (pH 2.4, glycine 50 mM): 67.5 kcal/mol | unfolding enthalpy (van 't Hoff) (pH 2.4, glycine 50 mM): 87.3 kcal/mol | Tm (pH 2.5, glycine 50 mM): 45.8 °C | heat capacity change of unfolding (pH 2.5, glycine 50 mM): 0.7 kcal/mol/K | unfolding enthalpy (calorimetric) (pH 2.5, glycine 50 mM): 82.5 kcal/mol | unfolding enthalpy (van 't Hoff) (pH 2.5, glycine 50 mM): 90.4 kcal/mol | Tm (pH 2.75, glycine 50 mM): 48.5 °C | heat capacity change of unfolding (pH 2.75, glycine 50 mM): 0.04 kcal/mol/K | unfolding enthalpy (calorimetric) (pH 2.75, glycine 50 mM): 83.8 kcal/mol | unfolding enthalpy (van 't Hoff) (pH 2.75, glycine 50 mM): 95.4 kcal/mol | Tm (pH 2.8, Citric acid 50 mM): 48 °C | heat capacity change of unfolding (pH 2.8, Citric acid 50 mM): 0.94 kcal/mol/K | unfolding enthalpy (calorimetric) (pH 2.8, Citric acid 50 mM): 76.3 kcal/mol | unfolding enthalpy (van 't Hoff) (pH 2.8, Citric acid 50 mM): 93.4 kcal/mol | Tm (pH 3, Citric acid 50 mM): 50.5 °C | heat capacity change of unfolding (pH 3, Citric acid 50 mM): 0.96 kcal/mol/K | unfolding enthalpy (calorimetric) (pH 3, Citric acid 50 mM): 86.9 kcal/mol | unfolding enthalpy (van 't Hoff) (pH 3, Citric acid 50 mM): 101 kcal/mol | Tm (pH 3.5, Citric acid 50 mM): 56.5 °C | heat capacity change of unfolding (pH 3.5, Citric acid 50 mM): 1.08 kcal/mol/K | unfolding enthalpy (calorimetric) (pH 3.5, Citric acid 50 mM): 94.8 kcal/mol | unfolding enthalpy (van 't Hoff) (pH 3.5, Citric acid 50 mM): 104 kcal/mol | Tm (pH 3.7, Citric acid 50 mM): 58.3 °C | heat capacity change of unfolding (pH 3.7, Citric acid 50 mM): 1.65 kcal/mol/K | unfolding enthalpy (calorimetric) (pH 3.7, Citric acid 50 mM): 98.1 kcal/mol | unfolding enthalpy (van 't Hoff) (pH 3.7, Citric acid 50 mM): 105 kcal/mol | Tm (pH 4.5, Citric acid 50 mM): 58.7 °C | heat capacity change of unfolding (pH 4.5, Citric acid 50 mM): 1.58 kcal/mol/K | unfolding enthalpy (calorimetric) (pH 4.5, Citric acid 50 mM): 96.6 kcal/mol | unfolding enthalpy (van 't Hoff) (pH 4.5, Citric acid 50 mM): 101 kcal/mol | Tm (pH 5, Citric acid 50 mM): 60.1 °C | heat capacity change of unfolding (pH 5, Citric acid 50 mM): 0.91 kcal/mol/K | unfolding enthalpy (calorimetric) (pH 5, Citric acid 50 mM): 101 kcal/mol | unfolding enthalpy (van 't Hoff) (pH 5, Citric acid 50 mM): 105 kcal/mol | Tm (pH 5.5, Citric acid 50 mM): 65.3 °C | heat capacity change of unfolding (pH 5.5, Citric acid 50 mM): 1.26 kcal/mol/K | unfolding enthalpy (calorimetric) (pH 5.5, Citric acid 50 mM): 109 kcal/mol | unfolding enthalpy (van 't Hoff) (pH 5.5, Citric acid 50 mM): 123 kcal/mol | Tm (pH 6, Citric acid 50 mM): 64.7 °C | heat capacity change of unfolding (pH 6, Citric acid 50 mM): 1.92 kcal/mol/K and 1.88 kcal/mol/K | unfolding enthalpy (calorimetric) (pH 6, Citric acid 50 mM): 114 kcal/mol | unfolding enthalpy (van 't Hoff) (pH 6, Citric acid 50 mM): 122 kcal/mol | Tm (pH 6.5, Citric acid 50 mM): 64.2 °C | heat capacity change of unfolding (pH 6.5, Citric acid 50 mM): 1.33 kcal/mol/K | unfolding enthalpy (calorimetric) (pH 6.5, Citric acid 50 mM): 115 kcal/mol | unfolding enthalpy (van 't Hoff) (pH 6.5, Citric acid 50 mM): 124 kcal/mol
